The values that follow come from the nanobody polyreactivity screen of Harvey et al. (2022).

The nature of the series: yeast display, Sf9 membrane polyspecificity reagent, FACS + sequencing; frameworks hold sequencing errors. An outline of the steps: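 Nanobodies came from a synthetic yeast display library in Saccharomyces cerevisiae BJ5465, induced with galactose for 36–48 hours and stained for 1 hour at 4 °C with 10% biotinylated, detergent-solubilized Sf9 membrane reagent. Cells were enriched on streptavidin microbeads and then FACS-sorted, with low and high (top ~1%) gates set on anti-HA fluorescence for expression and streptavidin fluorescence for reagent binding. Each polyreactivity label reflects the gate a clone came from. Genes were amplified by colony PCR, sequenced by MiSeq 2 × 250 and filtered by CDR length.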
As for “QVQLVESGGGLVQAGGSLRLSCAASGRTFKRNPMGWYRQAPGKERELVAAISGTGSTNYADSVKGRFTISRDNAKNTVYLQMNSLKPEDSAVYYCNADIYSYRYPYVYWGQGTQVTVSS”, the “polyreactivity (PSR sort gate)” value was “low polyreactivity”. As for “QVQLVESGGGLVQAGGSLRLSCAASGRTFKRYAMGWYRQAPGKERELVAAITRSGGSTYYADSVKGRFTISRDNAKNTVYLQMNSLKPEDTAVYYCATRSYNNELEYWGQGTQVTVSS”, the entry is “high polyreactivity”; as for “QVQLVESGGGLVQAGGSLRLSCAASGRTFKSYAMGWYRQAPGKERELVAAISSSGGRTFYADSVKGRFTISRDNAKNTVYLQMNSLKPEDTAVYYCNARYCYRYGGYKPVGGYYWGQGTQVTVSS”, “high polyreactivity”; as for “QVQLVESGGGLVQAGGSLRLSCAASGRTFKSYSMGWYRQAPGKERELVAAISWSGGSTYYADSVKGRFTISRDNAKNTVYLQMNSLKPEDTAVYYCAKRGYASGSKWDYGYWGQGTQVTVSS”, “high polyreactivity”. For the sequence “QVQLVESGGGLVQAGGSLRLSCAASGRTFKTYAMGWYRQAPGKERELVAAIDSGGNTYADSVKGRFTISRDNAKNTVYLQMNSLKPEDTAVYYCAVDGGEFSSYGYWGHGTQVTVSS”, the “polyreactivity (PSR sort gate)” value is on record as “low polyreactivity”.

Take “QVQLVESGGGLVQAGGSLRLSCAASGRTFKWYAMGWYRQAPGKERELVAGISRGAGRTYYADSVKGRFTISRDNAKNTVYLQMNSLKPEDTAVYYCAAVPSYHSTSPFYYWGQGTQVTVSS”: the “polyreactivity (PSR sort gate)” value is on record as “high polyreactivity”. As for “QVQLVESGGGLVQAGGSLRLSCAASGRTFKWYPMGWYRQATGKERELVAGITSTGTTSYADSVKGRFTISRDNAKNTVYLQMNSLKPEDTAVYYCNTYYRWWKYDYWGQGTQVTVSS”, the entry is “high polyreactivity”; as for “QVQLVESGGGLVQAGGSLRLSCAASGRTFKYNTMGWYRQAPGKEREFVAAINWSGGSTYSAASVKGRFTISRDNAKNTVYLQMNSLKPEDTAVYYCAARRVYLGEYDYWGQGTQVTVSS”, “high polyreactivity”; as for “QVQLVESGGGLVQAGGSLRLSCAASGRTFKYYAMGWYRQAPGKERELVAAISWNGGSTYYADSVKGRFTISRDNAKNTVYLQMNSLKPEDTAVYYCAARYYAAGIGSRYDYWGQGTQVTVSS”, “high polyreactivity”. In the case of “QVQLVESGGGLVQAGGSLRLSCAASGRTFKYYAMGWYRQAPGKERELVASISRSGGITYYADSVKGRFTISRDNAKNTVYLQMNSLKPEDTAVYYCAARYSVRPISIYPFDFGYWGQGTQVTVSS” it was “low polyreactivity”; in that of “QVQLVESGGGLVQAGGSLRLSCAASGRTFKYYAMGWYRQAPGKERELVATISFRGGSTYYADSVKGRFTISRDNAKNTVYLQMNSLKPEDTAVYYCAATTPYYTPRRRNDYWGQGTQVTVSS”, “high polyreactivity”; in that of “QVQLVESGGGLVQAGGSLRLSCAASGRTFKYYAMGWYRQAPGKERELVATITWSGTSTNYADSVKGRFTISRDNAKNTVYLQMNSLKPEDTAVYYCAARSKRRNYDYWGQGTQVTVSS”, “high polyreactivity”. In the case of “QVQLVESGGGLVQAGGSLRLSCAASGRTFLAYTMGWYRQAPGKEMELVAAISTPGGSTYYADSVKGRFTISRDNAKNTVYIQMNSLKPEDTAVYYCAAADSTWFDWGNYWYYYWGQGTQVTVSS” it was “low polyreactivity”; in that of “QVQLVESGGGLVQAGGSLRLSCAASGRTFLENAMGWYRQAPGKERELVAAISWRGGNTHYADSVKGRFTISRDNAKNTVYLQMNSLKPEDTAVYYCNAVNYRNKYDYWGQGTQVTVSS”, “high polyreactivity”; in that of “QVQLVESGGGLVQAGGSLRLSCAASGRTFLINAMGWYRQAPGKERELVAAINYGGGSTYYADSVKGRFTISRDNAKNTVYLQMKSLKPEDTAVYYCSTEYYDTYVGSYSYWGAKYGSWGQGTQVTVSS”, “low polyreactivity”. Consider “QVQLVESGGGLVQAGGSLRLSCAASGRTFLLYAMGWYRQAPGKERELVAAISRGGGSTFYADTVKGRFTLSRDNAKNTVYLQRNSLKPDDTAVYYCAAYGRYYYIYDYCGQGTQVTVSS”, for which the “polyreactivity (PSR sort gate)” value was “high polyreactivity”. As for “QVQLVESGGGLVQAGGSLRLSCAASGRTFLQYGMGWYRQAPGKERELVAAITTSGGDTYYADSVKGRFTISRDNAKNTVYLQMNSQKPEDTAVYYCNAEPRYGTYDYWGQGTQVTVSA”, the entry is “low polyreactivity”; as for “QVQLVESGGGLVQAGGSLRLSCAASGRTFLRYAMGWSRQAPGKERELVAAISSRGGRTYYADSVKGRFTISRDNAKNTVYLQMNILKPEDTAVYYCNARYSPRTGRGRHVTYYYWGQGTQVTVSS”, “high polyreactivity”. As for “QVQLVESGGGLVQAGGSLRLSCAASGRTFLSYMGWYRQAPGKERELVAISRSGTSTYYADSVKGRFTISRDNAKNTVYLQMNSLKPEDTAVYYCAATRRYPQYRGYDYWGQGTQVTVSS”, the entry is “high polyreactivity”; as for “QVQLVESGGGLVQAGGSLRLSCAASGRTFLTNPMGWYRQAPGKETELVAVITSSGGTYYADSVKGRFSISRDNAKNTVYLQMNSLKPEYTEVYYCNTRQQFTLTRGVFLHNYWGQGTQVTVSS”, “high polyreactivity”; as for “QVQLVESGGGLVQAGGSLRLSCAASGRTFLVNAMGWYRQAPGKEREFVAAITSRSGRTNYADSVKGRFTISRDNAKNTVYLQSNSLKPEDTAVYYCNAEGYTVKYWYSRYDYWGQGTQVTVSS”, “high polyreactivity”. With “QVQLVESGGGLVQAGGSLRLSCAASGRTFLVYAMGWYRQAPGKERELVADITSGGSTDYADSVKGRFTISRDNAKNTVYLQMNSLKPEDTAVYYCATDLWRWYGWFDYWGQGTQVTVSS”, the “polyreactivity (PSR sort gate)” value is “low polyreactivity”. As for “QVQLVESGGGLVQAGGSLRLSCAASGRTFLVYTMGWYRQAPGKERELVAAISWSDGSTYYADSEKGRFTISRDNAKNTVYLQMNSLKPEDTAVYYCAARRTGYLYRYGYWGQGTQVTVSS”, the entry is “low polyreactivity”; as for “QVQLVESGGGLVQAGGSLRLSCAASGRTFLWNAMGWYRQAPGKERELVARINLSGGRTYYADSVKGRFTISRDNAKNTVYLQMNSLKPEDTAVYYCAATVVRYRRDSWGQGTQVTVSS”, “low polyreactivity”; as for “QVQLVESGGGLVQAGGSLRLSCAASGRTFLYYAKGWYRQAPGKERELGAAISSGGSTNYADSVKGRFTISRDNAKNTVYLQMNSLKPEDTAVYYCNADYTSRDTSDVIYEYDYWGQGTQVTVSS”, “low polyreactivity”. In the case of “QVQLVESGGGLVQAGGSLRLSCAASGRTFLYYAMGWYRQAPGKERELVAAIRRGSSTYYADSVKGRFTISRDNAKNTVYLQMNSLKPEDTAVYYCNKVYYAFRVSLYRYGYWGQGTQVTVSS” it was “high polyreactivity”; in that of “QVQLVESGGGLVQAGGSLRLSCAASGRTFLYYAMGWYRQAPGKERELVAAISSGADSTYYADSVKGRFTISRDNAKNTVYLQMNSLKPEDTAVYYCAAGGSHDGVWDDYWGQGTQVTVSS”, “high polyreactivity”; in that of “QVQLVESGGGLVQAGGSLRLSCAASGRTFLYYTMGWYRQAPGTERELVATINYSGGRTYYADSVKGRFTISRDNANNTVYFQMNSLKPVATAVYFWAKSGRALWWYDYWGQGTQVTVSS”, “high polyreactivity”. With “QVQLVESGGGLVQAGGSLRLSCAASGRTFNAYAMGWYRLAPWKERELVAAISSGGSTYYADSVKGRFTISRDNAKNTVYLQMNSLKQEDTAVYYSNKVYGWRQFDYWGNGTQVTVSS”, the “polyreactivity (PSR sort gate)” value was “high polyreactivity”. Take “QVQLVESGGGLVQAGGSLRLSCAASGRTFNFNTMGWYRQAPGKEREFVAAITFRGVRTYYADSVKGRFTISRDNAKNTVYLQMNSLKPEDTAVYYCAADAPRSYRFGYWGQGTQVTVSS”: the “polyreactivity (PSR sort gate)” value is listed as “high polyreactivity”.

For “QVQLVESGGGLVQAGGSLRLSCAASGRTFNGYALGSSRQAPGKERELVAAISGRGRSTRYADSVKGRFTISRDNAKNTVYLQMNSLNPEDTAVYYCNARGYSETQREYDSWGQGTQVTVSS”, the “polyreactivity (PSR sort gate)” value was “high polyreactivity”. As for “QVQLVESGGGLVQAGGSLRLSCAASGRTFNKYAMGWYRQAPGKERELVAAIRDGSGGRTNYADSVKGRFTISRDNAKNTVYLQMNSLKPEDTAVYYCNADDSKYPYYTDDYWGQGTQVTVSS”, the “polyreactivity (PSR sort gate)” value was “low polyreactivity”. As for “QVQLVESGGGLVQAGGSLRLSCAASGRTFNPNAMGWYRQAPGKERELVAAISSSGGSTYYADSVKGRFTISRDNAKNTVYLQMNSLKPEDTAVYYCAAVHKWYLYYYWGQGTQVTVSS”, the entry is “high polyreactivity”; as for “QVQLVESGGGLVQAGGSLRLSCAASGRTFNPYTMGWYRQAPGKEREFVATIRKSSGGTYYADSVKGRFTISRDTAKNTVYLQMNSLKPEDTAVYYCAAVGNGGMDYWGQGTQVTVSS”, “low polyreactivity”; as for “QVQLVESGGGLVQAGGSLRLSCAASGRTFNQYAMGWYRQAPGKERELVAAISRRTGRTYYADSVKGRFTISRDNAKNTVYLQMNSLKQEDTAVYYCAAGFTYLNYTPWYRFNYWGQGTQVTVSS”, “high polyreactivity”. “QVQLVESGGGLVQAGGSLRLSCAASGRTFNRNAMGWYRPAPGKERELVAAISRGGGGTFYADSVKGRFTISRDNAKNTVYLQMNSLKPEDTAVYYCAVWQDHYDWGQGTQVTVSS”: the “polyreactivity (PSR sort gate)” value was “low polyreactivity”.

Consider “QVQLVESGGGLVQAGGSLRLSCAASGRTFNRNAMGWYRQAPGKERELVASITSRGGSTYYADSVKGRFTISRDNAKNTVYLQMNSLKPEDTAVYYCNATPKFFGRYWGYDYWGQGTQVTVSS”, for which the “polyreactivity (PSR sort gate)” value was “high polyreactivity”. In the case of “QVQLVESGGGLVQAGGSLRLSCAASGRTFNRYAMGWYRQAPGKERELVAAISWRGDSTYYADSVKGRFTISRDNAKNTVYLQMNSLKPEDTAVYYCAARGNFWGQGTQVTVSS” it was “high polyreactivity”; in that of “QVQLVESGGGLVQAGGSLRLSCAASGRTFNRYAMGWYRQAPGKERELVAAISWSGGRTYYADSVKGRFTISRDNAKNTVYLQMNSMIPEATAVYYCAKEAYFRYDYCGQGTQVTVSS”, “low polyreactivity”. On to “QVQLVESGGGLVQAGGSLRLSCAASGRTFNSNAMGCYRQAPGKERELVARISRGASTYYADSVKGRFTISRDNAKNTVYLQMNSLKPEDTAVYYCAKRRRSAAPKYDYWGQGTQVTVSS”, for which the “polyreactivity (PSR sort gate)” value was “high polyreactivity”. For “QVQLVESGGGLVQAGGSLRLSCAASGRTFNSYAMGWYRQAPGKEREFVASITFSTGRTYYADSVKGRFTISRDNAKNTVYLQMNSLKPEDTAVYYCNVRFVTGYRYRYGDDYWGQGTQVTVSS”, the “polyreactivity (PSR sort gate)” value is given as “low polyreactivity”.
